± gives the half width of the 95% confidence interval.
Assay: folding stability dG unfold from chymotrypsin proteolysis; higher = more stable
How it was run: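 Sequencing followed digestion of designed mini-proteins with trypsin and chymotrypsin, each at 11 concentrations in threefold dilutions together with a no-protease condition. The mini-proteins were under 80 residues, had no cysteine, sat in a PA-tagged cDNA display construct, and were kept only if AlphaFold2 dimer inter-PAE was above 15. From the counts, Bayesian fitting gave K50, and unfolding free energy was derived against a sequence-predicted unfolded-state K50 and a shared folded-state K50, per protease or combined.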

Sequence | folding stability dG unfold
SAGGMTLEERAEALAAERGWTVTSIELVEEKPGEVKFRVTFRLPDGSLETVEITVKRPPPVPPDNLLSAGGS [r8_309_JUSTAS] | 3.726 ± 0.025 kcal/mol
SAGGSAGGSTLEEVRKIAEEAVKKGYPYVVISAPGGLKKVFKVEEDDIVEIPDSEGYTVELLSSAGGSAGGS [r20_44_TrMRF] | 0.85 ± 0.14 kcal/mol
SAGGMPLPDEKVNITITINYTLPGGKPKTITIPATNWTVEEANEKKKKVEEELKKVPPDPVEKDGKLLSAGG [r13_330_JUSTAS] | -0.281 ± 0.24 kcal/mol
SAGKPGEPIKLKIRYVDPDNGEPQTFEFPIKRIEDVEIDPPGNIIITFPGDGQEITFPPNHLTEVEILSAGG [r19_416_TrROS] | 0.36 ± 0.24 kcal/mol
SAGGSAEVTITVEYDEETGVLKITITVPPGVTVEEIAEALKKLVPDVKVEKNEDGTITVYVKLPEKSAGGSA [r15_1057_TrROS_Hall] | 4.36 ± 0.16 kcal/mol
SAGGSAGGSAMFPDNTTVIEKEVPSSDVESAIEEIKKEYGVENYEVTTEPRPGTVKITVTIKPSAGGSAGGS [r12_929_JUSTAS] | 1.34 ± 0.038 kcal/mol
SAVPAEGMSPEEAAALAEEVREAFEAEVKAAGGPIPADTVVTVDYALEGSPVTITLTFTTPDSVSTTVASAG [r14_501_JUSTAS] | 0.57 ± 0.079 kcal/mol
SAGGSAGGSAGGSPVEIKLKELPDGVLVAEATFTLENGETVKIKAVYDKKTKKLHFELVSAGGSAGGSAGGS [r4_13_TrROS_Hall] | 3.5 ± 0.085 kcal/mol
SPEVPPGKTLEREFKGVPVRLTREEESGTIHITVYPPTDPSKPLYEAEFSPDELRPIPLPPEVAAALAAESA [r9_1051_JUSTAS] | 0.0553 ± 0.1 kcal/mol
SAGGMVIIIPSPDNTVLIIEIEGDKAKIIIINPEDGSAVIIELPIEPNGDGSFILKITSIEVLEDADISAGG [r13_556_TrMRF] | 3.34 ± 0.13 kcal/mol
SGMLAPDATVTTTEIVFEKDPKTGLYYLTVKEKTVTVKPDSSGRLVLTTSPVTITDLGPLTPEEAEKLLSSA [r9_423_JUSTAS] | 2.73 ± 0.031 kcal/mol
SAGGSAGGKVRINWNPNGWIRIKIETPGKKQEIPIPMDSPEDAKDFVDKLAKQFKVKIEEIEPYSAGGSAGG [r6_254_TrROS] | 0.166 ± 0.3 kcal/mol
SAGGSAGGSSEKAEELLERLRELLPPEEIRRVEVRDGKIVIEVSPEAARRLAEELGLDEIEIVSAGGSAGGS [r12_748_TrROS_Hall] | 2.22 ± 0.071 kcal/mol
SPSPAAKNMKPIRIRLRDPNGKKYKIENINVGPDGQFQIRIKFPGNTHTQTLPPGAPFELPPDRIEEVEISA [r9_993_TrROS] | 0.971 ± 0.2 kcal/mol
SAGGSAGGSAWMYRIKIEIYSNGKKHKYEFWIPEDNIDEVADQLPPGYKIKITDIEPWEPNSAGGSAGGSAG [r3_195_TrROS] | 2.73 ± 0.049 kcal/mol
SAGGKTVTIKVTRPDGKELTIEFEEKDGKVTVRVFDKDGKLVKEIEVDSLEEALKALEEAGYEVEVVPSAGG [r13_315_TrROS_Hall] | 3.36 ± 0.15 kcal/mol

Sequence | folding stability dG unfold
SAGGSAGGSAGMLVYRTVVTTEVLETETTSFPTPEGPYVTTTTVTVKTTVTVEKLTPELLSAGGSAGGSAGG [r11_24_JUSTAS] | 2.61 ± 0.041 kcal/mol
SAGGSAGGSMEIVVPVKNPEELKAVAEELEKKGYKVEKLPDGSLKVEKPGSVIYIKGDPVPPLSAGGSAGGS [r12_204_JUSTAS] | 1.49 ± 0.06 kcal/mol
SAGGSASEELVEEIANIIKPALEEEGIEVERVEATAVTLPDGTVVIPVRVRTKDGPEVLEFNIVILSAGGSA [r15_232_TrMRF] | 1.235 ± 0.012 kcal/mol
SAGGSAGGSAGGKTVVLFVDPKTKKVYILYPDGKIETLSPEELKNKPIIVKPVKLHPKAGSAGGSAGGSAGG [r7_98_TrMRF] | 1.86 ± 0.053 kcal/mol
SAGEIVIPIPFDWEQAPRMAKHLLRRFQQEGKKIRIWVPDAGAVEAIKDALPPNFPIEVEPLKPGEPIPSAG [r5_911_TrROS] | 1.27 ± 0.27 kcal/mol
SAGGMKIEIEIEMTPEEVRKAIEELAKALGLKIVKVEVEVERKEDGTLRVRVTIEIEPLPEEELEPESAGGS [r8_374_TrROS_Hall] | 4.32 ± 0.18 kcal/mol
SAGGSAGGSAPMKIDEITDVYPNPNRPKIIIKWRGPNGQPMVFDPENGKWMTPEEALDALKSAGGSAGGSAG [r3_206_TrROS] | 1.12 ± 0.062 kcal/mol
SAGGSAGVVKGRIEITFVVPPDAPGVEELARETVKRIGFDAENVEILKVERLPDGSYRVTLLLDAPSAGGSA [r15_654_TrMRF] | 4.47 ± 0.052 kcal/mol
SAGGSPRLELTVTIPGLGLPVTVRTESVDPVRGYVTATLDFPVPGYRATLVFDPVTGRVYARVEPASAGGSA [r2_147_TrMRF] | 3.13 ± 0.062 kcal/mol
SAGGMIIIKFKTKEQAKKAIEAAKKGKEIEITLKDGKKIKAKVVKVEEKPNYVYLVIKTEDGKEIKFSAGGS [r16_254_TrROS_Hall] | 2.42 ± 0.038 kcal/mol
SAGGSAGGSAGGSPFTIKIKMEQPNGRKRTYTIEGEGDLDQIAKELEKHYPGRIKDIEISAGGSAGGSAGGS [r4_412_TrROS] | 0.783 ± 0.23 kcal/mol
SAGGPKITIMWPEGMPPEELENFLKKLNPNYKVEYRPMPPEDMKDMPPGDVVISIPFDGRYWYLRIKPSAGG [r13_649_TrROS] | 1.99 ± 0.095 kcal/mol
SAGGSAGGSAGGDPDERIPIKIEMWHPNKPYEHEFPVGMDLSDIADPFASDGFMVRIEISAGGSAGGSAGGS [r10_540_TrROS] | 1.26 ± 0.07 kcal/mol
SAGGSAGGMVTTKELPSNKTVTVTVTPDPVAGREGATVKPPSTSETKNFGDPAAAAAMSPEKLSSAGGSAGG [r6_740_JUSTAS] | 0.2 ± 0.071 kcal/mol
SAGGSAKPNEKVKIRIINEDGEEIEIEVEVKPGEKIYLLENGEEVEVKPGEKIEFPPGAKILVEKVSAGGSA [r15_152_TrROS_Hall] | 1.07 ± 0.02 kcal/mol

From the supplement of paper PMC12764529
